Results reported in patent US20120237966A1.

Target: GI (K607T)-mCherry-CAAX (Arabidopsis thaliana) (UniProt Q9SQI2)
Assay: cell-based or functional assay

Chain of UniProt Q9SQI2 (Q9SQI2 other isoform, or with tags, fused parts or gaps K607T K607T): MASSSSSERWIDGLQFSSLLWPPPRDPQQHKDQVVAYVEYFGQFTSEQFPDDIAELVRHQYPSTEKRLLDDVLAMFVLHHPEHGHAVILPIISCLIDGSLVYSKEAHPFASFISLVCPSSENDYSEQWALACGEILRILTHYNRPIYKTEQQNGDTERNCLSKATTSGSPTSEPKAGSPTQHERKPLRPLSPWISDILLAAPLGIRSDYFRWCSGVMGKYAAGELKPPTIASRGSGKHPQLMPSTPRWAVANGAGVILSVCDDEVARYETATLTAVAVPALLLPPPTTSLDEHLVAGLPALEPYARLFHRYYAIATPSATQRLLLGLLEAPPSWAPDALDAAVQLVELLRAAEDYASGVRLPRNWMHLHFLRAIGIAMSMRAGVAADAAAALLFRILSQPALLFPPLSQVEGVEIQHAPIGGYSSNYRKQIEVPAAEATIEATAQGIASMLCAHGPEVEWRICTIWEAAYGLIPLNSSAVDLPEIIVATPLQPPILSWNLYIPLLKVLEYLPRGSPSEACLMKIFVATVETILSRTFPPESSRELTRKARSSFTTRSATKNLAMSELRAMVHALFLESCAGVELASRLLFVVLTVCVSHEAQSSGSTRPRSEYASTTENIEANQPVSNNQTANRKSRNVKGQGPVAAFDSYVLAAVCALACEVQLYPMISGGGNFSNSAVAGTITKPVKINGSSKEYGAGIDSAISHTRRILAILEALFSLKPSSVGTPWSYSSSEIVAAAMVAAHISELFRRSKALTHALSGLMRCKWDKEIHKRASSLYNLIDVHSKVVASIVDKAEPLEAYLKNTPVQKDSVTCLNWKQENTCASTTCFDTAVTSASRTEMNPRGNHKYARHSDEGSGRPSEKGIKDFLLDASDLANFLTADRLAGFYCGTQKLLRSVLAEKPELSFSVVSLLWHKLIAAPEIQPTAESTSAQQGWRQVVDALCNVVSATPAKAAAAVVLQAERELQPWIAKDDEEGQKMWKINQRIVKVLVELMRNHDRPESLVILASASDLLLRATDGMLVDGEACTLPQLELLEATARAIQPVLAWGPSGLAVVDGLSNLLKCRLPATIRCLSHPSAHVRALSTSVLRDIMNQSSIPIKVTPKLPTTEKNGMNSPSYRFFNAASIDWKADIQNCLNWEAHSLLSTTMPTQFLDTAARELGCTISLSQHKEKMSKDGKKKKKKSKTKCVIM

percentage of cells with lamellipodia, increase upon illumination [%]	Substance
87	NES-FKF1(K15T)-YFP-linker-Rac1ca (FKF1-Rac) G128D (from UniProt P63000 1-188)
46	NES-FKF1(K15T)-YFP-linker-Rac1ca (FKF1-Rac) WT (from UniProt P63000 1-188)
